Patent US20220281931A1 (published 2022)

B1: SIAH1^SBD (tag-cleaved) (enzyme)
chain: VANSVLFPCKYASSGCEITLPHTEKADHEELCEFRPYSCPCPGASCKWQGSLDAVMPHLMHQHKSITTLQGEDIVFLATDINLPGAVDWVMMQSCFGFHFMLVLEKQEKYDGHQQFFAIVQLIGTRKQAENFAYRLELNGHRRRLTWEATPRSIHEGIATAIMNSDCLVFDTSIAQLFAENGNLGINVTISMC

Tests used:
BCL6^5-360 (ITC) = BCL6^5-360 (ITC) (UniProt P41182 5-360); experiment: ITC; also printed as Kd = 1.6 uM
SIAH1^SBD (tag-cleaved) = target: B1; experiment: ITC

Binder | Kd (BCL6^5-360 (ITC)) | Kd (SIAH1^SBD (tag-cleaved))
B1 | 1.57 µM | –
EYSRPTLEVSPNVCHSNIYS [BCL6^241-260 peptide] | – | 6.3 µM
